Key:
[1] = target: Aleuria aurantia lectin (Aleuria aurantia) (UniProt P18891); assay: BLI; biotinylated AAL (1.5 μg/mL) loaded on High Precision Streptavidin (SAX) biosensors, mucin in solution; Octet RED96, kinetics mode, 25°C, 1000 rpm, sample diluent
[2] = target: Aleuria aurantia lectin (Aleuria aurantia) (UniProt P18891); assay: BLI; competition with L-Fuc: AAL-loaded biosensor blocked with 0.1 M L-Fuc in the second baseline step, and the mucin sample incubated with L-Fuc (BSM 1 μM to 0.1 M; MUC5B 1 μM to 100 μM)

Sequence of UniProt P18891 (P18891 whole entry): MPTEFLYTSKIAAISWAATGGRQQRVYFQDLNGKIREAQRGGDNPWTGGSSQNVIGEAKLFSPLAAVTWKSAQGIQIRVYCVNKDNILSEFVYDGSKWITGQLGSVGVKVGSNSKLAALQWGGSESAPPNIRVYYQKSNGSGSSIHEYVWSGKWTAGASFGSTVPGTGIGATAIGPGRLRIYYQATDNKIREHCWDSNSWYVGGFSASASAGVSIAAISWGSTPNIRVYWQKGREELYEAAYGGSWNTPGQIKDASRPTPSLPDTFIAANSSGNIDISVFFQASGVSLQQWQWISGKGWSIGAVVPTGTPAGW

fold lower binding response than MUC5B [1]: 10 times lower | fold lower association with 100 μM Fuc than without Fuc [2]: 5 times lower
Substance: Bovine Submaxillary Mucin (natural protein)

Reference: article PMC5760085
